Reference: article PMC8184781 (2021)
Ends that are not written are not given here.

Biological target: T1, RDM15 Tudor domain (residues 598-662), wild type (Arabidopsis thaliana)
T1 chain: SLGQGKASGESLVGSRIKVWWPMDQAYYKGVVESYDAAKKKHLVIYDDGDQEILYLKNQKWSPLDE
Assay: ITC

Binder: ARTK(Me)QTARKSTGGKA [H3(1-15) K4me1 peptide]
- Kd: 1470 nM
